This is an account of results in the nanobody polyreactivity screen of Harvey et al. (2022).

This series can be described thus: yeast display, Sf9 membrane polyspecificity reagent, FACS + sequencing; frameworks hold sequencing errors. In a few lines:
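Nanobodies came from a synthetic yeast display library in Saccharomyces cerevisiae BJ5465, induced with galactose for 36–48 hours and stained for 1 hour at 4 °C with 10% biotinylated, detergent-solubilized Sf9 membrane reagent. Cells were enriched on streptavidin microbeads and then FACS-sorted, with low and high (top ~1%) gates set on anti-HA fluorescence for expression and streptavidin fluorescence for reagent binding. Each polyreactivity label reflects the gate a clone came from. Genes were amplified by colony PCR, sequenced by MiSeq 2 × 250 and filtered by CDR length.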
Turning to “QVQLVESGGGLVQAGGSLRLSCAASGSTFYHYAMGWYRQAPGKERELVAAISTGGSTYYADSVKGRFTISRDNAKNTVYLQMNSLKPEDTAVYYCNARYIGGYGYWGQGTQVTVSS”, the “polyreactivity (PSR sort gate)” value was “low polyreactivity”.

“QVQLVESGGGLVQAGGSLRLSCAASGSTFYHYAMGWYRQAPGKERELVATISRRGGSTYYADSVKGRFTISRDNAKNTVYLQMNSLKPEDTAVYYCAAEYARSSRYKISSEMYYWGQGTQVTVSS”: the “polyreactivity (PSR sort gate)” value is listed as “high polyreactivity”.

In the case of “QVQLVESGGGLVQAGGSLRLSCAASGSTFYINAMGWYRQAPGKERELVADITVRGGNTYYADSVKGRFTISRDNAKNTVYLQMNSLKPEDTAVYYCNALLSGGRAGFDYWGQVTQVTVSS”, the “polyreactivity (PSR sort gate)” value is “high polyreactivity”.

“QVQLVESGGGLVQAGGSLRLSCAASGSTFYINTMGWYRQAPGKEREFVAAITWSGGSTYYADSVKGRFTISRDNAKNTVYLQMNSLKPEDTAVYYCAADLYVGDMDYWGQGTQVTVAS”: the “polyreactivity (PSR sort gate)” value is reported as “low polyreactivity”.

For the sequence “QVQLVESGGGLVQAGGSLRLSCAASGSTFYIYAMGWYRQAPGKDRELVARISGSGGSTYYADSVKGRITISRDNAKNTVYLQMNSLKPEDTAVYYCAATKFNSFYWRYGYWGQGTQVTVSS”, the “polyreactivity (PSR sort gate)” value is given as “low polyreactivity”.

On to “QVQLVESGGGLVQAGGSLRLSCAASGSTFYIYAMGWYRQAPGKERELVAAITWSGSRTYYADSVKGRFTISRDNAKNTVYLQMNSLKPEDTAVYYCAARSYRNNRYKEDYWGQGTQVTVSS”, for which the “polyreactivity (PSR sort gate)” value is given as “high polyreactivity”.

For “QVQLVESGGGLVQAGGSLRLSCAASGSTFYIYAMGWYRQATGKERELVAAIDWNDGSTYYADSVKGRFTISRDNAKNTVYLEMHSLKPEDTAVYYCAAAIYIYRDGTYDYWGQGTQETVSS”, the “polyreactivity (PSR sort gate)” value was “high polyreactivity”.

Regarding “QVQLVESGGGLVQAGGSLRLSCAASGSTFYIYVMGWYRQAPGKERELVARISSSGGSTYYADSVKGRFTISRDNAKNTVYLQMNSLKPEDTAVYYCNVDYGAWYDYWGQGTQVTVSS”, the “polyreactivity (PSR sort gate)” value is “low polyreactivity”.

Consider “QVQLVESGGGLVQAGGSLRLSCAASGSTFYKNAMGWYRQAPGKERELVARISGRGGSTYYADSVKGRFTISRDNAKNTVYLQMNSLKPEDTAVYYCNALYRVFVGTYDYWGQGTQVTVSS”, for which the “polyreactivity (PSR sort gate)” value is listed as “high polyreactivity”.

Turning to “QVQLVESGGGLVQAGGSLRLSCAASGSTFYKNSMGWYRQAPGKERELVATISASSTSTYYADSVKGRFTISRDNAKNTVYLQMNSLKPEATAVYYCSKVYVHGSTYGYYWYGYDYWGQGTQVTVSS”, the “polyreactivity (PSR sort gate)” value was “low polyreactivity”.

Take “QVQLVESGGGLVQAGGSLRLSCAASGSTFYKSTMGCYRQPPGKESELVPAISGSATTTYYADSVKGRFTISRDNAKNTVYLQMNSLKPEDTAVYYCAARRFSPGSSGHGYWGQGTQVNVSS”: the “polyreactivity (PSR sort gate)” value is listed as “high polyreactivity”.

For “QVQLVESGGGLVQAGGSLRLSCAASGSTFYKYAMGWYRQAPGKERELVAAITRSGGSTYYADSVKGRFTISRDNAKNTVYLQMNSLKPEDTAVYYCNADRKSRSKGVGYDYWGQGTQVTVSS”, the “polyreactivity (PSR sort gate)” value was “high polyreactivity”.

Turning to “QVQLVESGGGLVQAGGSLRLSCAASGSTFYKYAMGWYRQAPGKERELVASITWSGTSTYYADSVKGRFTISRDKAKNTVYLQMNSLKPEDTAVYYCNAGLESYYWGYTWEFDYWGQGTQVTVSS”, the “polyreactivity (PSR sort gate)” value is “low polyreactivity”.

“QVQLVESGGGLVQAGGSLRLSCAASGSTFYLNAMGWYRQAPGKEREFVAAIRGGGTSTRYADSVKGRFTISRDNAKNTVYLQMNSLKPEDTAVYFCAAPRVVYRGDYWGQGTQVTVSS”: the “polyreactivity (PSR sort gate)” value is “high polyreactivity”.

As to “QVQLVESGGGLVQAGGSLRLSCAASGSTFYLYAMGWYRQAPGKEREFVAAISWSGGRTYYADSVKGRFTISRDNAKNTVYLQMNSLKPEDTAVYYCAARRRYTWQYTRYDMGYWGQGTQVTVSS”, the “polyreactivity (PSR sort gate)” value is recorded as “low polyreactivity”.

Regarding “QVQLVESGGGLVQAGGSLRLSCAASGSTFYLYAMGWYRQAPGKERELVAAISRGGTTYYADSVKGRFTISRDNAKNTVYLQMNSLKPEETAVYYCNARYTSRRSRRPYYYWGQGTQVTVSS”, the “polyreactivity (PSR sort gate)” value is “high polyreactivity”.
